Measurements reported in patent US20160264650A1 (Regeneron, published 2016).
Numbering of substitutions follows the chain as printed.

B1: H1H3335P (antibody, V domains shown)
VH: EVQLVESGGGLVRPGGSLRLSCAASGFTFRIYAMSWVRQAPGKGLEWVSGISGSGDNTYYTDSVKGRFIISRDNSKSTLYLQMNSLRAEDTAVYYCARGWELLNYWGQGTLVTVSS
VL: DIQMTQSPSSLSAFVGDRVTITCRASQDISNHLAWFQQKPGKVPKSLIYAASSLQSGVPSKFSGSGSGTDFTLTISSLQPEDFATYYCQQYGLYPPTFGPGTKVDIKR
B2: H1H3337P (antibody, V domains shown)
VH: B1 VH with R13Q, R30S, D56G, N57R, T61A, I69T, S77N, A88V, Y105F
VL: B1 VL with F14S, D28G, H32N, V43A, Q55K, S76N, Q89H, G92N, L93S
B3: H1H3354P (antibody, V domains shown)
VH: QVQLQQSGPGLVKPSQTLSLTCAISGDSVSSNSAAWNWIRQSPSRGLEWLGRTYYRSKWYHDYAFSVKSRILINPDTSKNLFSLQVNSVTPEDTAVYYCARDRRSYFDYWGQGTLVTVSS
VL: EIVLTQSPATLSLSPGERATLSCRASRSVSSSLAWYQQKPGQAPRLLIYDASNRATGIPARFSGGGSGTDFTLTISSLEPEDFAVYYCQQRNNWPPTFGQGTKLEIKR
B4: H1H3355P (antibody, V domains shown)
VH: EVQLVESGGGLVQPGRSLRLSCTASGFVFEDYAMHWVRQAPGKGLEWVSGISWNSGRIGYTDSVKGRFTVSRDNAKNSLYLQMNSLTTEDTALYYCAKDKSPSKWNLLGMDVWGQGTTVTVSS
VL: AIQMTQSPSSLSASVGDRVTITCRASQDIRNDLGWFQQKPGRAPNLLIFGASSLQSGVPSRFSGSGSGTDFTLTISGLQPEDFSTYYCLQDYTYPFTFGPGTKVDIKR
B5: H1H3394P (antibody, V domains shown)
VH: QVQLVQSGAEVQKPGASVKVSCKASGYTFTDYYIHWVRQAPGQGLEWMGWINPKTGGTNYAPKFQGRVTMTRDSSIITAYMDLTRLTSDDTAVFYCARRGYNSRWSVFDYWGQGTLVTVSS
VL: EIVLTQSPGTLSLSPGERATLSCRASQSVYSNYLAWYQQKRGLAPRLLIYGASSRATGIPDRFSGSGSGTDFTLTISRLEPEDFAVYYCQQHGGSPVTFGGGTKVEIKR
B6: H1H3401P (antibody, V domains shown)
VH: QVQLVESGGGVVQPGRSLRLSCEASGFTFSSYGMHWVRQAPGNGLEWIAVISSDGNNKYYIESVKGRFTMSRDNSKNTLYLQLNSLRTEDTAVYYCATYNWNDDGDGVFDYWGQGTLVTVSS
VL: DIQMTQSPSSVSASVGDRVTITCRASQGISNWLAWYQQKPGKAPKLLIYGTSSLQSGVPSRFSGSGSGTDFTLTISSLQPEDFATYYCQQVKSFPYTFGQGTKLEIKR
B7: H1H3411P (antibody, V domains shown)
VH: EVQLVESGGGLVQPGGSLRLSCAASGFTFSRYGMNWVRQAPGKGLEWVSAISGSGGSTYHADSVKGRFTISRDNSKNTLYLQMNSLRAADTAIYFCASYNWNDGVDVWGQGTTVTVS
VL: B6 VL with V15I, T51A, P59S, S76I, V91A, K92N
B8: H1M3134N (antibody, V domains shown)
VH: QVQLVESGGDVVQPGRSLRLSCAASGFTFSGHGMHWVRQAPGKGLEWVALILYDGSSEDYTDSVKGRFTVSRDNSKNTLYLQMNSLRAEDTAVYYCARGSILNRPFDYWGQGTLVTVSS
VL: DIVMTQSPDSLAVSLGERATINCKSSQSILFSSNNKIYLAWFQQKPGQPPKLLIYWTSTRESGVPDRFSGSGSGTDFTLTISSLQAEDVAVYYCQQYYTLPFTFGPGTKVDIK
notes: also called HIM3134N
B9: H2aM3067N (antibody, V domains shown)
VH: QIQLVESGGGVVQPGRSLRLSCVASGFTLSGHGMHWVRQAPGKGLEWVAFISFDGGHQDYTDAAEGRFTISRDNSKNTLYLEMVSLRPADTAIYYCVKGSDSSRGFGYWGRGILVTVSS
VL: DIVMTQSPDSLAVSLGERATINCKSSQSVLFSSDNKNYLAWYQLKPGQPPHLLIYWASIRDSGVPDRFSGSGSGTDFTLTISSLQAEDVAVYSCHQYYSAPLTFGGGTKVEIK
notes: also called H2M3067N; H1M3067N
B10: H1M3117N (antibody, V domains shown)
VH: EVQLLESGGGLAQPGGSLRLSCAASGFNFGTHDMSWVRQAPGKGLEWVSGLTSTGGSASSADSVKGRFTISRDNSKNILYLQMNSLRAEDTAVYYCAKTFNWNSYFDYWGQGTLVTVSS
VL: EIVLTQSPGTLSLSPGERATLSCRASQSISTYYLAWYQQKPDQPPRLLIYGTSSRATGIPDRFSGSGSGTDFTLTISRLDPEDFAVYYCQQYGNSLYTFGQGTKLEIK
B11: H1H3324P (antibody, V domains shown)
VH: EVQLVESGGGLVQPGGSLRLSCAASGFTFSSYDMHWVRQVIGKGLEWVSAIGTVGDTYYAGSVKGRFTISRENAKNSLYLQMNSLRAGDTAVYYCARDRGGANIYSFYYGMDVWGQGTTVTVSS
VL: DIQMTQSPSSLSVSVGDRVTITCRASQDISNYLAWYQQKPGKVPKLLIYAASTLQSGVPSRFSGSGSGTDFTLTISSLQPEDVATYFCQKYNSAPFTFGPGTKVDIKR
B12: H1H3328P (antibody, V domains shown)
VH: B11 VH with R19T, G26R, S31N, V40A, I41T, E72D, N73D, N103G, I104T
VL: B11 VL with V13A, I75V, F87Y, N92T
B13: H1H3117N (antibody, V domains shown)
VH: B10 VH
VL: B10 VL
B14: H1H3350P (antibody, V domains shown)
VH: QVQLVESGGGLVKPGGSLTLSCVASGFTFTDYYISWIRQAPGKGLEWISYIGTGGAAKYYADSVKGRFTVSRDNAKNSLYLLMNNLRAEDTAVYYCARDLGIFDLWGQGTLVTVSS
VL: EIVMTQSPATLSVSPGERATLSCRASQSVSSSLAWYHQKPGQAPRLLIHGVSTRATGIPARFSGTGSGTEFTLTISSLQSEDFAVYYCQQYHNWPPYTFGQGTKLEIKR
B15: Control I (anti-toxin A antibody with the variable domains of the "3D8" antibody of U.S. Pat. No. 7,625,559 and US2005/0287150) (antibody, human IgG1, kappa, V domains shown)
VH: QVQLVESGGGVVQPGRSLRLSCAASGFSFSNYGMHWVRQAPGKGLEWVALIWYDGSNEDYTDSVKGRFTISRDNSKNTLYLQMNSLRAEDTAVYYCARWGMVRGVIDVFDIWGQGTVVTVSS
VL: B6 VL with N31S, Q38H, G50A, T51A, V91A, K92N, Y96W, L104V
notes: also called control 1; Control Antibody I
B16: H1H3134N (antibody, V domains shown)
VH: B8 VH
VL: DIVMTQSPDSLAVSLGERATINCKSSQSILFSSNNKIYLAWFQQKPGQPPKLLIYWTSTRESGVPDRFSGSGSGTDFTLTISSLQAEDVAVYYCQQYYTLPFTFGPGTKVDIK
B17: H1H3067N (antibody, V domains shown)
VH: B9 VH
VL: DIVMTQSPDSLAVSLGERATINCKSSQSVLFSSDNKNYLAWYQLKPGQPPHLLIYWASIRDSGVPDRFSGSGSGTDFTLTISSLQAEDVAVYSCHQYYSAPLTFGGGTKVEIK

Each binder was assayed against T1, Clostridium difficile toxin B, soluble full-length (TechLab) (Clostridium difficile, UniProt P18177 2-2366) (assay: SPR Biacore T200, 37C, mAb capture).
T1 construct: also called tcdB
For B1, the Kd was 2340 pM, the “T½” value was 0.467 h and the koff was 0.000414 s⁻¹. For the same binder, the kon was 177000 M⁻¹ s⁻¹. For B2, the Kd was 3930 pM, the “T½” value was 0.2 h and the koff was 0.000945 s⁻¹. The kon was 241000 M⁻¹ s⁻¹. B3: no binding (tested: toxin at 5 to 10 nM). B4: no binding (tested: toxin at 5 to 10 nM). B5 was tested, and the Kd was 333 pM, the “T½” value was 1.2 h and the koff was 0.000162 s⁻¹. It also gave a kon of 486000 M⁻¹ s⁻¹. For B6, the Kd was 574 pM, the “T½” value was 0.8 h and the koff was 0.000241 s⁻¹. It also gave a kon of 420000 M⁻¹ s⁻¹. With B7 the Kd was 677 pM, the “T½” value was 1.22 h and the koff was 0.000159 s⁻¹. The kon was 235000 M⁻¹ s⁻¹.

What follows are binders tested against T2, CBD-toxin A-Fc (Clostridium difficile, UniProt P16154 1848-2710) (assay: SPR Biacore, mAb captured, 100 nM CBD-A-Fc flowed).
T2 construct: also called CBD-A; C-term Toxin A
For B1, the “binding (RU)” value was 13 RU. In the case of B2, the “binding (RU)” value is reported as -17 RU. B3 was tested, and the “binding (RU)” value was -19 RU. B8 was tested, and the “binding (RU)” value was -1 RU. With B9 the “binding (RU)” value was -2 RU. In the case of B10, the “binding (RU)” value is reported as -3 RU. In the case of B11, the “binding (RU)” value is reported as 269 RU. B12 was tested, and the “binding (RU)” value was 354 RU.

Each binder was assayed against T3, Clostridium difficile toxin A, soluble full-length (TechLab) (Clostridium difficile, UniProt P16154 1-2710) (assay: SPR Biacore T200, 37C, mAb capture).
T3 construct: also called tcdA
In the case of B13, the Kd is reported as 79.3 pM, the “T½” value is reported as 5.53 h and the koff is reported as 3.84e-05 s⁻¹. It also gave a kon of 438000 M⁻¹ s⁻¹. B11 was tested, and the Kd was 13.9 pM, the “T½” value was 54.9 h and the koff was 3.5e-06 s⁻¹. It also gave a kon of 251000 M⁻¹ s⁻¹. With B12 the Kd was 95.7 pM, the “T½” value was 5.27 h and the koff was 3.66e-05 s⁻¹. The kon was 382000 M⁻¹ s⁻¹. B14 was tested, and the Kd was 10.1 pM, the “T½” value was 47.6 h and the koff was 4.05e-06 s⁻¹. The kon was 402000 M⁻¹ s⁻¹. In the case of B15, the Kd is reported as 85.9 pM, the “T½” value is reported as 0.967 h and the koff is reported as 3.24e-05 s⁻¹. The kon was 377000 M⁻¹ s⁻¹.

Biological target: T3, Clostridium difficile toxin A, soluble …
Test: SPR Biacore T200, 37C, mAb capture
Remark: another data set of the same source
B16 was tested, and the Kd was 27.8 pM, the “T½” value was 68.3 h and the koff was 2.82e-06 s⁻¹. The kon was 102000 M⁻¹ s⁻¹. B17 was tested, and the Kd was 240 pM, the “T½” value was 5.58 h and the koff was 3.45e-05 s⁻¹. The kon was 144000 M⁻¹ s⁻¹.

The binders below were run against T2, CBD-toxin A-Fc (assay: SPR Biacore, mAb capture and CBD-Fc capture formats).
B1: no binding.

The binders below were run against T4, C-term receptor Binding Domain (CBD) of toxin B (Clostridium difficile, UniProt P18177 1851-2366) (assay: SEC (Superose 6) of CBD and mAb mixture).
T4 construct: also called CBD-B
B1: no binding (tested: CBD at ~500 nM, CBD:Mab 1:5 and 1:20). B2: no binding (tested: CBD at ~500 nM, CBD:Mab 1:5 and 1:20). B3: no binding (tested: CBD at ~500 nM, CBD:Mab 1:5 and 1:20).

The binders below were run against T3, Clostridium difficile toxin A, soluble … (assay: cell-based or functional assay).
For B8, the “IC50, Vero cell viability (neutralization), Trial 4, 32 pM Toxin A” value was 38 pM. In the case of B9, the “IC50, Vero cell viability (neutralization), Trial 1, 32 pM Toxin A” value is reported as 64 pM and the “IC50, Vero cell viability (neutralization), Trial 2, 32 pM Toxin A” value is reported as 44 pM. B10 was tested, and the “IC50, Vero cell viability (neutralization), Trial 1, 32 pM Toxin A” value was 29 pM and the “IC50, Vero cell viability (neutralization), Trial 2, 32 pM Toxin A” value was 11 pM. With B11 the “IC50, Vero cell viability (neutralization), Trial 4, 32 pM Toxin A” value was 33 pM. With B12 the “IC50, Vero cell viability (neutralization), Trial 3, 32 pM Toxin A” value was 112 pM. In the case of B15, the “IC50, Vero cell viability (neutralization), Trial 5, 25 pM Toxin A” value is reported as 199 pM.

What follows are binders tested against T1, Clostridium difficile toxin B, soluble … (assay: cell-based or functional assay).
For B1, the “IC50, Vero cell viability (neutralization), Trial 1, 0.1 pM Toxin B” value was 730 pM, the “IC50, Vero cell viability (neutralization), Trial 2, 0.1 pM Toxin B” value was 380 pM and the “IC50, Vero cell viability (neutralization), Trial 3, 0.03 pM Toxin B” value was 120 pM. For B2, the “IC50, Vero cell viability (neutralization), Trial 1, 0.1 pM Toxin B” value was 1730 pM, the “IC50, Vero cell viability (neutralization), Trial 2, 0.1 pM Toxin B” value was 980 pM and the “IC50, Vero cell viability (neutralization), Trial 3, 0.03 pM Toxin B” value was 320 pM. For B7, the “IC50, Vero cell viability (neutralization), Trial 2, 0.1 pM Toxin B; antibody only partially protects (40-50%) at highest concentration” value was 8 pM.

The binders below were run against T5, CBD-toxin B-Fc (Clostridium difficile, UniProt P18177 1851-2366) (assay: SPR Biacore, CBD-B-Fc captured, 500 nM mAb flowed).
T5 construct: also called CBD-B; C-term Toxin B
B1 was tested, and the “binding (RU)” value was -6 RU. For B11, the “binding (RU)” value was -8 RU. B12 was tested, and the “binding (RU)” value was -6 RU.

What follows are binders tested against T2, CBD-toxin A-Fc (assay: SPR Biacore, CBD-A-Fc captured, 500 nM mAb flowed).
In the case of B1, the “binding (RU)” value is reported as 5 RU. B2 was tested, and the “binding (RU)” value was 8 RU. For B3, the “binding (RU)” value was -2 RU. In the case of B8, the “binding (RU)” value is reported as 195 RU. B9 was tested, and the “binding (RU)” value was 237 RU. For B10, the “binding (RU)” value was 350 RU. In the case of B11, the “binding (RU)” value is reported as 224 RU. B12 was tested, and the “binding (RU)” value was 227 RU.
